Values belong to the binder of their own block, whether it stands above or below them.
Legend:
[1] = biological target: T1, SPRED1(EVH1), SPRED1(13–125), wild type (ITC), Q7Z699; test: ITC; settings: chain shown with the change
T1 chain: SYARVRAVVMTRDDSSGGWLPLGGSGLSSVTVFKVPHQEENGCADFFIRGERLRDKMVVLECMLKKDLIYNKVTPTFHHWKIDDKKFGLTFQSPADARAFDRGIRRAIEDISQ

[2] = biological target: T2, NF1(GRD), neurofibromin GAP-related domain, wild type (ITC), P21359-2; test: ITC; settings: chain shown with the change
T2 chain: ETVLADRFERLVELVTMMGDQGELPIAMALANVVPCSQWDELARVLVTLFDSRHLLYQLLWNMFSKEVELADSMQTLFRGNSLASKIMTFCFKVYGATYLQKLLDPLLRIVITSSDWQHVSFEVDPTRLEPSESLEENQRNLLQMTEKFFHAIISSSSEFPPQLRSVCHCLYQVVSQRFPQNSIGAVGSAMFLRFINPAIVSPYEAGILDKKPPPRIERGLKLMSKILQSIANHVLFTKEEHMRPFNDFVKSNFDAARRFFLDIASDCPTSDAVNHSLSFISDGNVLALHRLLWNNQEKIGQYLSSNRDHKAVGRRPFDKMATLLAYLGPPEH

[3] = biological target: NF1(GRD), neurofibromin GAP-related domain, wild type (ITC) (human) (UniProt P21359); test: ITC; MicroCal PEAQ-ITC, 25°C, 19 injections of 2.2 μL; 20 mM HEPES (pH 7.3), 150 mM NaCl, 5 mM MgCl2, 1 mM TCEP; one set of sites model; protein in the cell not given
NF1(GRD) R1250A (human) = NF1(GRD) R1250A (human) (UniProt P21359); test: as above
NF1(GRD) D1217A (human) = NF1(GRD) D1217A (human) (UniProt P21359); test: as above

Kd [1]: 1.08 µM
B2: NF1(GRD), neurofibromin GAP-related domain, wild type (ITC), P21359-2 R1250A (protein)
chain: ETVLADRFERLVELVTMMGDQGELPIAMALANVVPCSQWDELARVLVTLFDSAHLLYQLLWNMFSKEVELADSMQTLFRGNSLASKIMTFCFKVYGATYLQKLLDPLLRIVITSSDWQHVSFEVDPTRLEPSESLEENQRNLLQMTEKFFHAIISSSSEFPPQLRSVCHCLYQVVSQRFPQNSIGAVGSAMFLRFINPAIVSPYEAGILDKKPPPRIERGLKLMSKILQSIANHVLFTKEEHMRPFNDFVKSNFDAARRFFLDIASDCPTSDAVNHSLSFISDGNVLALHRLLWNNQEKIGQYLSSNRDHKAVGRRPFDKMATLLAYLGPPEH

Kd [2]: 33.7 µM
B4: SPRED1(EVH1), SPRED1(13–125), wild type (ITC), Q7Z699 G30R (protein)
chain: SYARVRAVVMTRDDSSGRWLPLGGSGLSSVTVFKVPHQEENGCADFFIRGERLRDKMVVLECMLKKDLIYNKVTPTFHHWKIDDKKFGLTFQSPADARAFDRGIRRAIEDISQ

fold weaker binding than wild-type SPRED1 (printed as decrease in KD) [3]: > 100 fold
B7: SPRED1(13–125) G30R (domain or fragment)
chain: SYARVRAVVMTRDDSSGRWLPLGGSGLSSVTVFKVPHQEENGCADFFIRGERLRDKMVVLECMLKKDLIYNKVTPTFHHWKIDDKKFGLTFQSPADARAFDRGIRRAIEDISQ

Continued, binder first:

B1: NF1(GRD), neurofibromin GAP-related domain, wild type (ITC), P21359-2 D1217A (protein)
chain: ETVLADRFERLVELVTMMGAQGELPIAMALANVVPCSQWDELARVLVTLFDSRHLLYQLLWNMFSKEVELADSMQTLFRGNSLASKIMTFCFKVYGATYLQKLLDPLLRIVITSSDWQHVSFEVDPTRLEPSESLEENQRNLLQMTEKFFHAIISSSSEFPPQLRSVCHCLYQVVSQRFPQNSIGAVGSAMFLRFINPAIVSPYEAGILDKKPPPRIERGLKLMSKILQSIANHVLFTKEEHMRPFNDFVKSNFDAARRFFLDIASDCPTSDAVNHSLSFISDGNVLALHRLLWNNQEKIGQYLSSNRDHKAVGRRPFDKMATLLAYLGPPEH
Kd [1]: 14 µM

B3: SPRED1(EVH1), SPRED1(13–125), wild type (ITC), Q7Z699 R24Q (protein)
chain: SYARVRAVVMTQDDSSGGWLPLGGSGLSSVTVFKVPHQEENGCADFFIRGERLRDKMVVLECMLKKDLIYNKVTPTFHHWKIDDKKFGLTFQSPADARAFDRGIRRAIEDISQ
Kd [2]: 4 µM

B5: SPRED1(13–125) R24Q (domain or fragment)
chain: SYARVRAVVMTQDDSSGGWLPLGGSGLSSVTVFKVPHQEENGCADFFIRGERLRDKMVVLECMLKKDLIYNKVTPTFHHWKIDDKKFGLTFQSPADARAFDRGIRRAIEDISQ
fold weaker binding than wild-type SPRED1 [3]: 20 fold

B6: SPRED1(13–125) S105D, purified phosphomimetic (domain or fragment)
chain: SYARVRAVVMTRDDSSGGWLPLGGSGLSSVTVFKVPHQEENGCADFFIRGERLRDKMVVLECMLKKDLIYNKVTPTFHHWKIDDKKFGLTFQDPADARAFDRGIRRAIEDISQ
fold weaker affinity than wild-type SPRED1 [3]: 10 fold

B8: SPRED1(EVH1), SPRED1(13–125), wild type (ITC) (domain or fragment)
chain: SYARVRAVVMTRDDSSGGWLPLGGSGLSSVTVFKVPHQEENGCADFFIRGERLRDKMVVLECMLKKDLIYNKVTPTFHHWKIDDKKFGLTFQSPADARAFDRGIRRAIEDISQ
fold reduced binding against wild-type NF1(GRD) (NF1(GRD) R1250A (human)): 5 fold
Kd [3]: 0.224 µM
fold weaker affinity than wild-type NF1(GRD) (NF1(GRD) D1217A (human)): > 50 fold
